The record followed here is patent publication US20130058939A1.

The assay has as its target low-density lipoprotein (LDL) receptor-related protein (LRP) on bovine brain capillary endothelial cells of the in vitro BBB model (bovine). Put plainly: cell-based or functional assay. Particulars: for alteplase (% of passage versus filter), spectrozyme assay, in vitro BBB model: scale: % of passage versus filter for alteplase alone.

Chain of DSPA α2 (alpha 2) (P15638 37-477 limits assumed): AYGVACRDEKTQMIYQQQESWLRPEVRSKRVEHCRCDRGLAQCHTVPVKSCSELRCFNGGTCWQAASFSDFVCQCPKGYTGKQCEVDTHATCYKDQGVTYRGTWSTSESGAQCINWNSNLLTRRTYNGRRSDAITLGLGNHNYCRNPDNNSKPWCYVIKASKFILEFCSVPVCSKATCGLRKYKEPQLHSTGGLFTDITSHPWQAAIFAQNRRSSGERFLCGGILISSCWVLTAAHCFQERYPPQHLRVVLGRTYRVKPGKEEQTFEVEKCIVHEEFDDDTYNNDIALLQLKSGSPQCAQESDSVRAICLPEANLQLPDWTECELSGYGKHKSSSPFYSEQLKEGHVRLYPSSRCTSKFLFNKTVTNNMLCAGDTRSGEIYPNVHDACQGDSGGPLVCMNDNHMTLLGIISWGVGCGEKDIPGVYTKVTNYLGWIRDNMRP
Chain of clogged Desmoteplase (cDSPA), DSPA alpha 1 inactivated with D-phenyl-prolyl-arginine chloromethyl ketone (P98119 37-477 limits assumed): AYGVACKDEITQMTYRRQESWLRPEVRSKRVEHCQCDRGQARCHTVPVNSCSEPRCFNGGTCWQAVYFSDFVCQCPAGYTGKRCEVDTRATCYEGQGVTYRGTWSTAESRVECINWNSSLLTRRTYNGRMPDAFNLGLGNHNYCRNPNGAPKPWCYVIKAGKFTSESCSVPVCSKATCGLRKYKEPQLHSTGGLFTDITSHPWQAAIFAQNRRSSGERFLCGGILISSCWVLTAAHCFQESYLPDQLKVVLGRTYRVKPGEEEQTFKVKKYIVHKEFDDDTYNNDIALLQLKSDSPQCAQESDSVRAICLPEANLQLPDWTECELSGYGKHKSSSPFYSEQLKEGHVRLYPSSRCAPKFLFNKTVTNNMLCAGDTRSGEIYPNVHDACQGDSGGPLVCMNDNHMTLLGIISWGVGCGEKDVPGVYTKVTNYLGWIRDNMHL
Chain of DSPAα1 (Desmoteplase) (P98119 37-477 limits assumed): as above

The substance “DSPA α2 (alpha 2) (from UniProt P15638 37-477) (enzyme)” had a % of abluminal alteplase (zymography assay; alteplase alone = 100), in vitro BBB model (% of abluminal alteplase alone) of 25.1 and an alteplase (% of passage versus filter), spectrozyme assay, in vitro BBB model of 61.9.
In turn, “DSPAα1 (Desmoteplase) (from UniProt P98119 37-477) (enzyme)” had a % of abluminal alteplase (zymography assay; alteplase alone = 100), in vitro BBB model (% of abluminal alteplase alone) of 46.6 and an alteplase (% of passage versus filter), spectrozyme assay, in vitro BBB model of 67.
For the substance Reteplase (Rapilysin) (enzyme), the % of abluminal alteplase (zymography assay; alteplase alone = 100), in vitro BBB model (% of abluminal alteplase alone) turned out to be 51.6.
For the substance “clogged Desmoteplase (cDSPA), DSPA alpha 1 inactivated with D-phenyl-prolyl-arginine chloromethyl ketone (from UniProt P98119 37-477) (enzyme)”, the % of abluminal alteplase (zymography assay; alteplase alone = 100), in vitro BBB model (% of abluminal alteplase alone) is 73.3 and the alteplase (% of passage versus filter), spectrozyme assay, in vitro BBB model is 76.3.
